Values quoted from earlier work as cited in publication PMC4426885.

Legend:
vinculin (Homo sapiens) = vinculin (Homo sapiens) (UniProt P18206)
[1] = target: vinculin D1 (Homo sapiens) (UniProt P18206)
[2] = target: vinculin tail (Homo sapiens) (UniProt P18206)

| Substance | Kd (vinculin (Homo sapiens)) [nM] | Kd [1] [nM] | Kd [2] [nM] |
| --- | --- | --- | --- |
| alpha-actinin peptide vinculin-binding site (from UniProt P12814) | 2 | 2 | – |
| vinculin head (from UniProt P18206) | – | – | < 1 |
